Here are results for seven molecules from US20200095598A1 (COMMONWEALTH SCIENTIFIC AND INDUSTRIAL RESEARCH ORGANISATION, published 2020).

Read-outs that look alike come from different tables or passages of the source.

The target in series [1] is pFAγ::NifD::FLAG fusion polypeptide (Klebsiella pneumoniae (NifD part); Arabidopsis thaliana (pFAγ MTP)). In words: cell-based or functional assay.
Series [2] has as its system pFAγ::NifD::HA fusion polypeptide.
Series [3] deals with the molecule itself. In words: SDS-PAGE and Western blot of N. benthamiana leaf extracts; self-association (band at about double the molecular weight).
The target of series [4] is T1, FAγ^51::NifD::HA fusion polypeptide (constructs SN6, SN7, SN8).
T1 chain: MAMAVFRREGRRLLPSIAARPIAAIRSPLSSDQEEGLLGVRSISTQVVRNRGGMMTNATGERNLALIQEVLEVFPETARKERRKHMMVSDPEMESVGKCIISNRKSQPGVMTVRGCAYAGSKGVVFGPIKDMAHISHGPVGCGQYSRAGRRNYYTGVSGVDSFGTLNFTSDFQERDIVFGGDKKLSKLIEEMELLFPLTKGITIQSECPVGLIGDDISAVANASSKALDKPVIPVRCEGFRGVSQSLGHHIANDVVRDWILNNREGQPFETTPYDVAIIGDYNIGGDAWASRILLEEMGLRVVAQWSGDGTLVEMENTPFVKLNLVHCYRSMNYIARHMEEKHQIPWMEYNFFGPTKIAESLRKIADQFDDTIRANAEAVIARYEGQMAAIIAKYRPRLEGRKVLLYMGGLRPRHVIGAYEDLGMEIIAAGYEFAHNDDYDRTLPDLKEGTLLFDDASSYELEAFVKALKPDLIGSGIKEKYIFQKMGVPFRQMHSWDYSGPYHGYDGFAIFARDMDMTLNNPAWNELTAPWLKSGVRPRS

Series [5] concerns the target T2, pFAγ::NifD::HA fusion polypeptide.
T2 chain: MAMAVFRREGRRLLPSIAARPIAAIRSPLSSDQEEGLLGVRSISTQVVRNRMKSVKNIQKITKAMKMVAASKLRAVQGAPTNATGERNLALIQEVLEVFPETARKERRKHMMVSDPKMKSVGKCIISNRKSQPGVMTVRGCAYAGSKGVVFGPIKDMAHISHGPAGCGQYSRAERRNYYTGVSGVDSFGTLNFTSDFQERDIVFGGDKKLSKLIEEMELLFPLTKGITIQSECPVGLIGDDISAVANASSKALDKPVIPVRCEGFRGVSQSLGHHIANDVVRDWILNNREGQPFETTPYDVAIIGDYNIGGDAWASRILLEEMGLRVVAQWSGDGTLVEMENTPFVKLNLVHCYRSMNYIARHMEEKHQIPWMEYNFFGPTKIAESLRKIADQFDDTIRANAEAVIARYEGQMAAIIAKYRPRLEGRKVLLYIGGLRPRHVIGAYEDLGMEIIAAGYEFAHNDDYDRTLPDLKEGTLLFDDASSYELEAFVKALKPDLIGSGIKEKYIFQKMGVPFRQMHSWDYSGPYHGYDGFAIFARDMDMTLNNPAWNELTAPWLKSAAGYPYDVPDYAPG

In series [6] the target is NifD polypeptide encoded by pMIT2.1 (wild-type nitrogenase gene cluster) in E. coli, P00466.
NifD polypeptide encoded by pMIT2.1 (wild-type nitrogenase gene cluster) in E. coli, P00466, sequence (P00466 whole entry, looked up): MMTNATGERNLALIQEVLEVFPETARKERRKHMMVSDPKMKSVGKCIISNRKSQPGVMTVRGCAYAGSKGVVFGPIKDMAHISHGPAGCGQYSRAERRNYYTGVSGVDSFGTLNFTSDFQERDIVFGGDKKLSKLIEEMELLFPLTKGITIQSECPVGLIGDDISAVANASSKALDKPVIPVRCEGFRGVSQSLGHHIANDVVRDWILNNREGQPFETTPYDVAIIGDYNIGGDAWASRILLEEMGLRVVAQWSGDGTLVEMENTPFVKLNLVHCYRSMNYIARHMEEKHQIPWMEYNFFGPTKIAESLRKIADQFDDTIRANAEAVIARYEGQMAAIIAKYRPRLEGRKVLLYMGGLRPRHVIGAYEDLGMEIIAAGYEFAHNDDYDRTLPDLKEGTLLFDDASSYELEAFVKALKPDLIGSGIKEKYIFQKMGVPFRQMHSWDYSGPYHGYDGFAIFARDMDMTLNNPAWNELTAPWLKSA

As for “pFAγ::NifK fusion polypeptide (pRA25), lacking any C-terminal extension (enzyme)”, the level of NifD::FLAG accumulation (band intensity normalised to a background band, Western blot anti-FLAG), co-expression with pRA25 against pRA11 (NifK with C-terminal extension) in series [1] stood at 50%.
Turning to pFAγ::NifH::HA fusion polypeptide, in series [2], the “extent of MTP processing of NifD::HA on co-expression (Western blot)” value was “the extent of processing of the MTP sequence fused to NifD::HA was increased in the presence of the NifK and NifH polypeptides”.

B1: pFAγ::NifB::HA fusion polypeptide (enzyme)
chain: ISTQVVRNRMKSVKNIQKITKAMKMVAASKLRAVQGAPTSCSSFSGGKACRPADDSALTPLVADKAAAHPCYSRHGHHRFARMHLPVAPACNLQCNYCNRKFDCSNESRPGVSSTLLTPEQAVVKVRQVAQAIPQLSVVGIAGPGDPLANIARTFRTLELIREQLPDLKLCLSTNGLVLPDAVDRLLDVGVDHVTVTINTLDAEIAAQIYAWLWLDGERYSGREAGEILIARQLEGVRRLTAKGVLVKINSVLIPGINDSGMAGVSRALRASGAFIHNIMPLIARPEHGTVFGLNGQPEPDAETLAATRSRCGEVMPQMTHCHQCRADAIGMLGEDRSQQFTQLPAPESLPAWLPILHQRAQLHASIATRGESEADDACLVAVASSRGDVIDCHFGHADRFYIYSLSAAGMVLVNERFTPKYCQGRDDCEPQDNAARFAAILELLADVKAVFCVRIGHTPWQQLEQEGIEPCVDGAWRPVSEVLPAWWQQRRGSWPAALPHKGVAAGGGGGYPYDVPDYAPG
notes: Expressed in N. benthamiana; also called pRA03
Turning to B1, the binding result in series [3] is on record as “binds”.

B2: pFAγ::NifS::HA fusion polypeptide (enzyme)
chain: ISTQVVRNRMKSVKNIQKITKAMKMVAASKLRAVQGAPKQVYLDNNATTRLDPMVLEAMMPFLTDFYGNPSSIHDFGIPAQAALERAHQQAAALLGAEYPSEIIFTSCATEATATAIASAIALLPERREIITSVVEHPATLAACEHMEREGYRIHRIAVDGEGALDMAQFRAALSPRVALVSVMWANNETGVLFPIGEMAELAHEQGALFHCDAVQVVGKIPIAVGQTRIDMLSCSAHKFHGPKGVGCLYLRRGTRFRPLLRGGHQEYGRRAGTENICGIVGMGAACELANIHLPGMTHIGQLRNRLEHRLLASVPSVMVMGGGQPAVPGTVNLAFEFIEGEAILLLLNQAGIAASSGSACTSGSLEPSHVMRAMNIPYTAAHGTIRFSLSRYTREKEIDYVVATLPPIIDRLRALSPYWQNGKPRPADAVFTPVYGAGGGGGYPYDVPDYAPG
notes: Expressed in N. benthamiana; also called pRA16
For B2, in series [3], the binding result was “binds”.

B3: pFAγ::NifY::HA fusion polypeptide (other)
chain: ISTQVVRNRMKSVKNIQKITKAMKMVAASKLRAVQGAPSDNDTLFWRMLALFQSLPDLQPAQIVDWLAQESGETLTPERLATLTQPQLAASFPSATAVMSPARWSRVMASLQGALPAHLRIVRPAQRTPQLLAAFCSQDGLVINGHFGQGRLFFIYAFDEQGGWLYDLRRYPSAPHQQEANEVRARLIEDCQLLFCQEIGGPAAARPIRHRIHPMKAQPGTTIQAQCEAINTLLAGRLPPWLAKRLNRDNPLEERVFAGGGGGYPYDVPDYAPG
notes: Expressed in N. benthamiana; also called pRA12
B3: the binding result in series [3] was “binds”.

B4: pFAγ::NifK fusion polypeptide (pRA25), lacking any C-terminal extension (protein)
chain: MAMAVFRREGRRLLPSIAARPIAAIRSPLSSDQEEGLLGVRSISTQVVRNRMKSVKNIQKITKAMKMVAASKLRAVQGAPSQTIDKINSCYPLFEQDEYQELFRNKRQLEEAHDAQRVQEVFAWTTTAEYEALNFRREALTVDPAKACQPLGAVLCSLGFANTLPYVHGSQGCVAYFRTYFNRHFKEPIACVSDSMTEDAAVFGGNNNMNLGLQNASALYKPEIIAVSTTCMAEVIGDDLQAFIANAKKDGFVDSSIAVPHAHTPSFIGSHVTGWDNMFEGFAKTFTADYQGQPGKLPKLNLVTGFETYLGNFRVLKRMMEQMAVPCSLLSDPSEVLDTPADGHYRMYSGGTTQQEMKEAPDAIDTLLLQPWQLLKSKKVVQEMWNQPATEVAIPLGLAATDELLMTVSQLSGKPIADALTLERGRLVDMMLDSHTWLHGKKFGLYGDPDFVMGLTRFLLELGCEPTVILSHNANKRWQKAMNKMLDASPYGRDSEVFINCDLWHFRSLMFTRQPDFMIGNSYGKFIQRDTLAKGKAFEVPLIRLGFPLFDRHHLHRQTTWGYEGAMNIVTTLVNAVLEKLDSDTSQLGKTDYSFDLVR
Turning to B4, in series [4], the “NifD::HA abundance and ratio of processed to unprocessed NifD on co-infiltration (SDS-PAGE, Western blot anti-HA)” value is “the addition of pRA25 in each case greatly enhanced NifD abundance, particularly for the combination of SN7 and pRA25. Most importantly, the ratio of processed to unprocessed NifD was enhanced by the addition of pRA25”; the “amount of the approximately 48 kDa NifD::HA degradation product on co-expression (Western blot anti-HA)” value is “the amount of this product was also enhanced by co-expression of pRA25 (NifK)”. For the same molecule, the “extent of MTP processing of NifD::HA on co-expression (Western blot)” value in series [5] is “the extent of processing of the MTP sequence fused to NifD::HA was increased in the presence of the NifK and NifH polypeptides”.

B5: modified NifK polypeptide having a 9 amino acid C-terminal extension (YPYDVPDYA), encoded by modified pMIT2.1 (protein)
chain: MSQTIDKINSCYPLFEQDEYQELFRNKRQLEEAHDAQRVQEVFAWTTTAEYEALNFRREALTVDPAKACQPLGAVLCSLGFANTLPYVHGSQGCVAYFRTYFNRHFKEPIACVSDSMTEDAAVFGGNNNMNLGLQNASALYKPEIIAVSTTCMAEVIGDDLQAFIANAKKDGFVDSSIAVPHAHTPSFIGSHVTGWDNMFEGFAKTFTADYQGQPGKLPKLNLVTGFETYLGNFRVLKRMMEQMAVPCSLLSDPSEVLDTPADGHYRMYSGGTTQQEMKEAPDAIDTLLLQPWQLLKSKKVVQEMWNQPATEVAIPLGLAATDELLMTVSQLSGKPIADALTLERGRLVDMMLDSHTWLHGKKFGLYGDPDFVMGLTRFLLELGCEPTVILSHNANKRWQKAMNKMLDASPYGRDSEVFINCDLWHFRSLMFTRQPDFMIGNSYGKFIQRDTLAKGKAFEVPLIRLGFPLFDRHHLHRQTTWGYEGAMNIVTTLVNAVLEKLDSDTSQLGKTDYSFDLVRYPYDVPDYA
As for B5, the “ethylene production in acetylene reduction assay (E. coli DH5α, modified pMIT2.1 + pN249)” value in series [6] is listed as “the 9-amino acid C-terminal extension added to NifK completely abolished ethylene production”.
